Measurements taken from patent publication US20020062008A1.
Each block holds one binder with its values, some of them ahead of it.

What was measured:
[1] = molecular target: soluble human αd/CD18 leucine zipper heterodimer (human) (UniProt P05107); assay: ELISA, CAM/Ig on αd/CD18LZ captured with 212D
[2] = molecular target: LFA-1 leucine zipper fusion protein (soluble CD11a/CD18) (UniProt P20701); assay: ELISA, CAM/Ig on captured soluble CD11a/CD18

fold increase in signal above background [1]: 5 fold
B1: soluble VCAM-1/IgG1 fusion protein (seven extracellular immunoglobulin-like domains) (Fc fusion, UniProt P19320 25-698, looked up, not shown: a dimerising Fc or GST)
chain: FKIETTPESRYLAQIGDSVSLTCSTTGCESPFFSWRTQIDSPLNGKVTNEGTTSTLTMNPVSFGNEHSYLCTATCESRKLEKGIQVEIYSFPKDPEIHLSGPLEAGKPITVKCSVADVYPFDRLEIDLLKGDHLMKSQEFLEDADRKSLETKSLEVTFTPVIEDIGKVLVCRAKLHIDEMDSVPTVRQAVKELQVYISPKNTVISVNPSTKLQEGGSVTMTCSSEGLPAPEIFWSKKLDNGNLQHLSGNATLTLIAMRMEDSGIYVCEGVNLIGKNRKEVELIVQEKPFTVEISPGPRIAAQIGDSVMLTCSVMGCESPSFSWRTQIDSPLSGKVRSEGTNSTLTLSPVSFENEHSYLCTVTCGHKKLEKGIQVELYSFPRDPEIEMSGGLVNGSSVTVSCKVPSVYPLDRLEIELLKGETILENIEFLEDTDMKSLENKSLEMTFIPTIEDTGKALVCQAKLHIDDMEFEPKQRQSTQTLYVNVAPRDTTVLVSPSSILEEGSSVNMTCLSQGFPAPKILWSRQLPNGELQPLSENATLTLISTKMEDSGVYLCEGINQAGRSRKEVELIIQVTPKDIKLTAFPSESVKEGDTVIISCTCGNVPETWIILKKKAETGDTVLKSIDGAYTIRKAQLKDAGVYECESKNKVGSQLRSLTLDVQGRENNKDYFSPE

fold above background [2]: 10 fold
B2: ICAM-2/Ig (Fc fusion, part only; not given: Ig portion, UniProt P13598 25-223, looked up, part only)
chain, part: KVFEVHVRPKKLAVEPKGSLEVNCSTTCNQPEVGGLETSLDKILLDEQAQWKHYLVSNISHDTVLQCHFTCSGKQESMNSNVSVYQPPRQVILTLQPTLVAVGKSFTIECRVPTVEPLDSLTLFLFRGNETLHYETFGKAAPAPQEATATFNSTADREDGHRNFSCLAVLDLMSRGGNIFHKHSAPKMLEIYEPVSDSQ
